Laboratory results taken from PMC6592955.
Each block holds one substance with its values, some of them ahead of it.

Legend:
[1] = target: calmodulin (CaM) (UniProt P0DP26); experiment: 2pFLIM-FRET in single dendritic spines; details: reference: wild type
[2] = target: mEGFP-CaMKIIα^T305A/T306A (Rattus norvegicus) (UniProt P11275); experiment: FRET or BRET; 2pFLIM-FRET in single dendritic spines of CA1 pyramidal neurons, organotypic hippocampal slices; single glutamate uncaging pulse; room temperature; decay fitted with a single exponential; T286A in slices of Camk2a^T286A knock-in mice
[3] = target: mEGFP-CaMKIIα^T286A (Rattus norvegicus) (UniProt P11275); experiment: as above
[4] = target: mEGFP-CaMKIIα^T286A (Rattus norvegicus) (UniProt P11275); experiment: FRET or BRET; 2pFLIM-FRET in single dendritic spines of CA1 pyramidal neurons, organotypic hippocampal slices; glutamate uncaging at near physiological temperature (34–35 °C); Supplementary Fig. 2
[5] = target: mEGFP-CaMKIIα (wildtype) (Rattus norvegicus) (UniProt P11275); experiment: FRET or BRET; 2pFLIM-FRET in single dendritic spines of CA1 pyramidal neurons, organotypic hippocampal slices; single glutamate uncaging pulse; room temperature; decay fitted with a single exponential; T286A in slices of Camk2a^T286A knock-in mice
[6] = target: mEGFP-CaMKIIα (wildtype) (Rattus norvegicus) (UniProt P11275); experiment: FRET or BRET; 2pFLIM-FRET in single dendritic spines of CA1 pyramidal neurons, organotypic hippocampal slices; glutamate uncaging at near physiological temperature (34–35 °C); Supplementary Fig. 2

- other: dissociation time constant ([1]; sites T286): weaker; reference 2.9 ± 0.3
- other: fast dissociation time constant ([1]; sites T286): weaker; reference 3.2 ± 0.6
Substance: CaMKIIα (from UniProt P11275) T286A

- other: dissociation time constant ([1]; sites T305,T306): stronger; reference 2.9 ± 0.3
- other: fast dissociation time constant ([1]; sites T305,T306): stronger; reference 3.2 ± 0.6
Substance: CaMKIIα (from UniProt P11275) T305A/T306A

Substance: mCherry-CaM (from UniProt P0DP26 1-149) (natural protein)
- dissociation time constant (tau) [2]: 7.5 s
- dissociation time constant (tau) [3]: 1.2 s
- dissociation time constant (tau) [4]: 0.3 s

Substance: mCherry-CaM (from UniProt P0DP26 1-149) (natural protein; other documents disagree on this pair)
- dissociation time constant (tau) [5]: 2.9 s
- koff [5]: 0.33 s⁻¹
- dissociation time constant (tau) [6]: 0.4 s
